Data taken from FireProtDB (doi:10.1021/bi010565n).

Conditions: Aspergillus oryzae (strain ATCC 42149 / RIB 40), pH 7, Thermal, MOPS 30 mM, reversible: yes(0.94), whole UniProt chain shown

B1: Guanyl-specific ribonuclease T1 wild type, P00651 (protein)
chain: MMYSKLLTLTTLLLPTALALPSLVERACDYTCGSNCYSSSDVSTAQAAGYQLHEDGETVGSNSYPHKYNNYEGFDFSVSSPYYEWPILSSGDVYSGGSPGADRVVFNENNQLAGVITHTGASGNNFVECT
Tm (CD): 51.2 °C | Tm (DSC): 51.5 °C
